The data set “cryo-EM structure” concerns the molecule itself. As to the kind of experiment: cryo-EM structure.
Data set [1] addresses T1, a-subunit of the yeast ATP synthase Fo (yeast (strain W303-1A background), UniProt P00854 11-259).
T1 sequence (looked up): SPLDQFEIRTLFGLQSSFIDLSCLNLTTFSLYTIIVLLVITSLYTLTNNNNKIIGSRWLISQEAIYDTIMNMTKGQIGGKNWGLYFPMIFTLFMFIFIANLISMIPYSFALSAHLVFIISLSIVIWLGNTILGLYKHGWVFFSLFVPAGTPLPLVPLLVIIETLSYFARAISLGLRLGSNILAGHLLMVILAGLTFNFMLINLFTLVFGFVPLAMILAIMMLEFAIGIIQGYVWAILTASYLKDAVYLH
As to the kind of experiment: cryo-EM structure.

B1: c-subunit of the yeast ATP synthase Fo (c10-ring) (natural protein, yeast (strain W303-1A background), UniProt P61829 1-76, looked up)
chain: MQLVLAAKYIGAGISTIGLLGAGIGIAIVFAALINGVSRNPSIKDTVFPMAILGFALSEATGLFCLMVSFLLLFGV
Consider B1, for which, in “cryo-EM structure”, the stoichiometry N (as a rule, the number of molecules, sites or subunits per partner or assembly) came to 10. The binding result in data set [1] is “binds”.

The values above are taken from publication PMC5948177 (Science (New York, N.Y.), 2018).
